Source: patent US20250076311A1 (Chugai, published 2025)

T1: human FcγRIIaR extracellular domain with C-terminal His-tag (human, UniProt P12318 34-217)
T1 construct: also called human FcgRIIaR; FcγRIIa (type R); not shown: His-tag added to C-terminus
T1 chain: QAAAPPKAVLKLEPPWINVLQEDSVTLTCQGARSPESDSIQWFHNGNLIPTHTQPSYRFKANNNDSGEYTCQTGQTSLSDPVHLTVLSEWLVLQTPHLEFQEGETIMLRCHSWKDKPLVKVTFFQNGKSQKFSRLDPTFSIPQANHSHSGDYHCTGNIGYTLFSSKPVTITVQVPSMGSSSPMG

T2: human FcγRIIb extracellular domain with C-terminal His-tag (human, UniProt P31994 43-217)
T2 construct: also called human FcgRIIb; not shown: His-tag added to C-terminus
T2 sequence: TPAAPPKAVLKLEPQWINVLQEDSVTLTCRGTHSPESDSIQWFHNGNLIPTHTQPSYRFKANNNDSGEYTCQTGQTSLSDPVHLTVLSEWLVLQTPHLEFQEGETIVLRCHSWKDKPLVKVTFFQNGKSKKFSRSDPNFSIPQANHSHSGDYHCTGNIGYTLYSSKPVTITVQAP

T3: cynomolgus monkey FcγRIIb extracellular domain with C-terminal His-tag (cynomolgus monkey)
T3 construct: also called cyno FcgRIIb; cynoFcγRIIb; not shown: His-tag added to C-terminus
T3 chain: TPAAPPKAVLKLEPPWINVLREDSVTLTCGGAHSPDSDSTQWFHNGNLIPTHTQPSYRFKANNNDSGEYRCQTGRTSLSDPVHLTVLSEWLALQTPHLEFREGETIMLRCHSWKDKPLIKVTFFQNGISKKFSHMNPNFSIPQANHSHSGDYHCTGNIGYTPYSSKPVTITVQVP

T4: cynomolgus monkey FcγRIIa2 extracellular domain with C-terminal His-tag (cynomolgus monkey)
T4 construct: also called cyno FcgRIIa2; cynoFcγRIIa2; not shown: His-tag added to C-terminus
T4 chain: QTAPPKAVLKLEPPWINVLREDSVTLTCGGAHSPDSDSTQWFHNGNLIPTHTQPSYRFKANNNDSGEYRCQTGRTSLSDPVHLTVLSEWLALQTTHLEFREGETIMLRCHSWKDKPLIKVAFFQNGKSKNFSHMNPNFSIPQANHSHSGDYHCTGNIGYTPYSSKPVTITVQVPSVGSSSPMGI


Legend:
Test in all cases: SPR Biacore, antibody captured, FcgR analyte
[1] = target: T5, cynomolgus monkey FcγRIIIaS extracellular domain with C-terminal His-tag (cynomolgus monkey, UniProt A3RFZ7 21-206 (rhesus entry))
T5 construct: also called cyno FcgRIIIaS; cynoFcγRIIIaS; not shown: His-tag added to C-terminus

[2] = target: T6, human FcγRIIIaV extracellular domain with C-terminal His-tag (human, UniProt P08637 17-208)
T6 construct: also called human FcgRIIIaV; not shown: His-tag added to C-terminus
T6 sequence (P08637 17-208 F176V): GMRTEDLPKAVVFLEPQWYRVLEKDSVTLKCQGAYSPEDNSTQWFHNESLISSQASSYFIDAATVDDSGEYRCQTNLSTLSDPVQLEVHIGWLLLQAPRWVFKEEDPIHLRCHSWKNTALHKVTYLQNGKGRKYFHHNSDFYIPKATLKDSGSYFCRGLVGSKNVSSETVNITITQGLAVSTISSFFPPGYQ

[3] = target: T1, human FcγRIIaR extracellular domain …
[4] = target: T2, human FcγRIIb extracellular domain with …
[5] = target: T3, cynomolgus monkey FcγRIIb extracellular …
[6] = target: T4, cynomolgus monkey FcγRIIa2 …

Binder	KD fold (SG1 = 1) [1] [fold]	Kd [1] [µM]	KD fold (SG1 = 1) [2] [fold]	KD fold (SG1 = 1) [3] [fold]	KD fold (SG1 = 1) [4] [fold]	KD fold (SG1 = 1) [5] [fold]	KD fold (SG1 = 1) [6] [fold]	Kd [2] [µM]
M103205H795-MY182/M103202L889-SK1 (antibody, human IgG1, kappa, name in EU numbering, EU numbering) heavy: QVTLKESGPVLVKPTETLTLTCTVSGIDLSHDDISWVRQAPGKGLEWVGIISYAGSTYYASWAKGRLTISKDTSKNQVVLTMTNMDPVDTATYYCARGVPAYSHGGDLWGQGTLVTVSSASTKGPSVFPLAPSSKSTSGGTAALGCLVKDYFPEPVTVSWNSGALTSGVHTFPAVLQSSGLYSLSSVVTVPSSSLGTQTYICNVNHKPSNTKVDKKVEPKSCDKTHTCPPCPAPELLNGPSVFLFPPKPKDTLMISRTPEVTCVVVDVSEEDPEVKFNWYVDGVEVHNAKTKPREEQYNSTYRVVSVLTVLHQDWLNGKEYKCKVSNKALPAPIEKTISKAKGQPREPQVYTLPPSREEMTKNQVSLTCLVKGFYPSDIAVEWESNGQPENNYKTTPVVLDSDGSFFLYSKLTVDKSRWQQGNVFSCSVMHEALHNHYTQKSLSLSP light: DIVMTQSPATLSLSPGERATLSCTSSQSVYHANWLSWFQQKPGQPPKLLIYWASTLAYGVPSRFSGSGSGTDFTLTISSLQPEDAATYYCAGGYGGGRYAFGQGTKVEIKRTVAAPSVFIFPPSDEQLKSGTASVVCLLNNFYPREAKVQWKVDNALQSGNSQESVTEQDSKDSTYSLSSTLTLSKADYEKHKVYACEVTHQGLSSPVTKSFNRGEC	0.1	3.6	0.17	–	–	–	–	–
M103205H795-MY434/M103202L889-SK1 (antibody, human IgG1, kappa, name in EU numbering, substitutions in EU numbering, introduced into M103205H795-SG1) heavy: QVTLKESGPVLVKPTETLTLTCTVSGIDLSHDDISWVRQAPGKGLEWVGIISYAGSTYYASWAKGRLTISKDTSKNQVVLTMTNMDPVDTATYYCARGVPAYSHGGDLWGQGTLVTVSSASTKGPSVFPLAPSSKSTSGGTAALGCLVKDYFPEPVTVSWNSGALTSGVHTFPAVLQSSGLYSLSSVVTVPSSSLGTQTYICNVNHKPSNTKVDKKVEPKSCDKTHTCPPCPAPELWNGPSVFLFPPKPKDTLMISRTPEVTCVVVDVSDEDPEVKFNWYVDGVEVHNAKTKPREEQYNSTYRVVSVLTVLHQDWLNGKEYKCKVSNKALPKPIEKTISKAKGQPREPQVYTLPPSREEMTKNQVSLTCLVKGFYPSDIAVEWESNGQPENNYKTTPPVLDSDGSFFLYSKLTVDKSRWQQGNVFSCSVMHEALHNHYTQKSLSLSP light: DIVMTQSPATLSLSPGERATLSCTSSQSVYHANWLSWFQQKPGQPPKLLIYWASTLAYGVPSRFSGSGSGTDFTLTISSLQPEDAATYYCAGGYGGGRYAFGQGTKVEIKRTVAAPSVFIFPPSDEQLKSGTASVVCLLNNFYPREAKVQWKVDNALQSGNSQESVTEQDSKDSTYSLSSTLTLSKADYEKHKVYACEVTHQGLSSPVTKSFNRGEC	0.03	–	–	0.8	3.5	–	–	–
M103205H795-MY440/M103202L889-SK1 (antibody, human IgG1, kappa, name in EU numbering, substitutions in EU numbering, introduced into M103205H795-SG1) heavy: QVTLKESGPVLVKPTETLTLTCTVSGIDLSHDDISWVRQAPGKGLEWVGIISYAGSTYYASWAKGRLTISKDTSKNQVVLTMTNMDPVDTATYYCARGVPAYSHGGDLWGQGTLVTVSSASTKGPSVFPLAPSSKSTSGGTAALGCLVKDYFPEPVTVSWNSGALTSGVHTFPAVLQSSGLYSLSSVVTVPSSSLGTQTYICNVNHKPSNTKVDKKVEPKSCDKTHTCPPCPAPELWNGPSVFLFPPKPKDTLMISRTPEVTCVVVDVSDEDPEVKFNWYVDGVEVHNAKTKPREELYNSTYRVVSVLTVLHQDWLNGKEYKCKVSNKALPKPIEKTISKAKGQPREPQVYTLPPSREEMTKNQVSLTCLVKGFYPSDIAVEWESNGQPENNYKTTPPVLDSDGSFFLYSKLTVDKSRWQQGNVFSCSVMHEALHNHYTQKSLSLSP light: DIVMTQSPATLSLSPGERATLSCTSSQSVYHANWLSWFQQKPGQPPKLLIYWASTLAYGVPSRFSGSGSGTDFTLTISSLQPEDAATYYCAGGYGGGRYAFGQGTKVEIKRTVAAPSVFIFPPSDEQLKSGTASVVCLLNNFYPREAKVQWKVDNALQSGNSQESVTEQDSKDSTYSLSSTLTLSKADYEKHKVYACEVTHQGLSSPVTKSFNRGEC	0.04	–	0.03	–	–	3.9	–	–
M103205H795-MY212/M103202L889-SK1 (antibody, human IgG1, kappa, name in EU numbering, substitutions in EU numbering, introduced into M103205H795-SG1) heavy: QVTLKESGPVLVKPTETLTLTCTVSGIDLSHDDISWVRQAPGKGLEWVGIISYAGSTYYASWAKGRLTISKDTSKNQVVLTMTNMDPVDTATYYCARGVPAYSHGGDLWGQGTLVTVSSASTKGPSVFPLAPSSKSTSGGTAALGCLVKDYFPEPVTVSWNSGALTSGVHTFPAVLQSSGLYSLSSVVTVPSSSLGTQTYICNVNHKPSNTKVDKKVEPKSCDKTHTCPPCPAPELLNGPVVFLFPPKPKDTLMISRTPEVTCVVVDVSDEDPEVKFNWYVDGVEVHNAKTKPREELYNSTYRVVSVLTVLHQDWLNGKEYKCKVSNTALPKPIEKTISKAKGQPREPQVYTLPPSREEMTKNQVSLTCLVKGFYPSDIAVEWESNGQPENNYKTTPPVLDSDGSFFLYSKLTVDKSRWQQGNVFSCSVMHEALHNHYTQKSLSLSP light: DIVMTQSPATLSLSPGERATLSCTSSQSVYHANWLSWFQQKPGQPPKLLIYWASTLAYGVPSRFSGSGSGTDFTLTISSLQPEDAATYYCAGGYGGGRYAFGQGTKVEIKRTVAAPSVFIFPPSDEQLKSGTASVVCLLNNFYPREAKVQWKVDNALQSGNSQESVTEQDSKDSTYSLSSTLTLSKADYEKHKVYACEVTHQGLSSPVTKSFNRGEC	0.14	–	0.17	–	7.5	–	–	–
M103205H795-MY200/M103202L889-SK1 (antibody) heavy: QVTLKESGPVLVKPTETLTLTCTVSGIDLSHDDISWVRQAPGKGLEWVGIISYAGSTYYASWAKGRLTISKDTSKNQVVLTMTNMDPVDTATYYCARGVPAYSHGGDLWGQGTLVTVSSASTKGPSVFPLAPSSKSTSGGTAALGCLVKDYFPEPVTVSWNSGALTSGVHTFPAVLQSSGLYSLSSVVTVPSSSLGTQTYICNVNHKPSNTKVDKKVEPKSCDKTHTCPPCPAPELLNGPVVFLFPPKPKDTLMISRTPEVTCVVVDVSEEDPEVKFNWYVDGVEVHNAKTKPREEQYNSTYRVVSVLTVLHQDWLNGKEYKCKVSNKALPKPIEKTISKAKGQPREPQVYTLPPSREEMTKNQVSLTCLVKGFYPSDIAVEWESNGQPENNYKTTPPVLDSDGSFFLYSKLTVDKSRWQQGNVFSCSVMHEALHNHYTQKSLSLSP light: DIVMTQSPATLSLSPGERATLSCTSSQSVYHANWLSWFQQKPGQPPKLLIYWASTLAYGVPSRFSGSGSGTDFTLTISSLQPEDAATYYCAGGYGGGRYAFGQGTKVEIKRTVAAPSVFIFPPSDEQLKSGTASVVCLLNNFYPREAKVQWKVDNALQSGNSQESVTEQDSKDSTYSLSSTLTLSKADYEKHKVYACEVTHQGLSSPVTKSFNRGEC	0.08	–	0.09	–	–	–	–	–
M103205H795-MY183/M103202L889-SK1 (antibody, human IgG1, kappa, name in EU numbering, EU numbering) heavy: QVTLKESGPVLVKPTETLTLTCTVSGIDLSHDDISWVRQAPGKGLEWVGIISYAGSTYYASWAKGRLTISKDTSKNQVVLTMTNMDPVDTATYYCARGVPAYSHGGDLWGQGTLVTVSSASTKGPSVFPLAPSSKSTSGGTAALGCLVKDYFPEPVTVSWNSGALTSGVHTFPAVLQSSGLYSLSSVVTVPSSSLGTQTYICNVNHKPSNTKVDKKVEPKSCDKTHTCPPCPAPELLNGPSVFLFPPKPKDTLMISRTPEVTCVVVDVSEEDPEVKFNWYVDGVEVHNAKTKPREEQYNSTYRVVSVLTVLHQDWLNGKEYKCKVSNKALPAPIEKTISKAKGQPREPQVYTLPPSREEMTKNQVSLTCLVKGFYPSDIAVEWESNGQPENNYKTTPWVLDSDGSFFLYSKLTVDKSRWQQGNVFSCSVMHEALHNHYTQKSLSLSP light: DIVMTQSPATLSLSPGERATLSCTSSQSVYHANWLSWFQQKPGQPPKLLIYWASTLAYGVPSRFSGSGSGTDFTLTISSLQPEDAATYYCAGGYGGGRYAFGQGTKVEIKRTVAAPSVFIFPPSDEQLKSGTASVVCLLNNFYPREAKVQWKVDNALQSGNSQESVTEQDSKDSTYSLSSTLTLSKADYEKHKVYACEVTHQGLSSPVTKSFNRGEC	0.1	3.5	–	–	4.7	–	2.6	7.7
